Literature values in paper PMC6008173.
pKd: −log10 of the molar value.

Molecular target: PCDH15 EC1-2 (Mus musculus) (UniProt Q99PJ1)

- pKd: 5.52
Substance: CDH23 EC1-2 (from UniProt Q99PF4)
